In patent publication US7060795 (KIMBERLY CLARK WORLDWIDE, dated 2006):

Experiments:
[1] = biological target: T1, matrix metalloproteinase-9 (MMP-9) (UniProt P14780 107-707, limits assumed); assay: SPR (BiaCore-X, CM-5 chip); KA = ka/kd
[2] = biological target: T1, matrix metalloproteinase-9 (MMP-9); assay: SPR (BiaCore-X, CM-5 chip); MMP-9 coupled to the chip, SEQ ID NO:5 polypeptide in PBS flowed over
[3] = biological target: T2, matrix metalloproteinase-1 (MMP-1) (UniProt P03956 100-469, limits assumed); assay: fluoresceinated collagen hydrolysis assay, Dixon plot, competitive inhibition assumed; target MMP-1
T2 sequence (looked up): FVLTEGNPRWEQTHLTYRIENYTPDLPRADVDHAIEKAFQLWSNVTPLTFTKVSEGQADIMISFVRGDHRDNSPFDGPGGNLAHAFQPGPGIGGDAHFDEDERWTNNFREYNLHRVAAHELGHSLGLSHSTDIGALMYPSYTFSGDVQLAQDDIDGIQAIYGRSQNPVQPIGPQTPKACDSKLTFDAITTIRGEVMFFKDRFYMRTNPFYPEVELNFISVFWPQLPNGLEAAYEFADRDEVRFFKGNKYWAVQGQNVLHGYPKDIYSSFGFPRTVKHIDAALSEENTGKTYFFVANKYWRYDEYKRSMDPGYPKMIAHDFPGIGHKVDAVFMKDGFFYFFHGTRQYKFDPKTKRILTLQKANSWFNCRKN
Protocol: (§1) Inhibition of MMPs: The assay employed measured the enzymatic hydrolysis of fluoresceinated collagen by MMP-9 or other matrix metalloproteinases as a function of time. Fluoresceinated collagen at a concentration of 5 μM was added to reaction buffer (50 mM Tris-HCl (pH 7.6), 150 mM NaCl, 5 mM CaCl_2, 0.1 mM NaN_3) and was placed into a Spectrosil quartz fluorimeter cuvette. MMP at a concentration of 0.1 μM was mixed with varying amounts of polypeptide inhibitor (SEQ ID NO:5 or SEQ ID NO:20) and incubated at 25° C. for 10 minutes in order to effect binding. The protein mixture was added to the collagen substrate, and mixed. Fluorescence emission intensity at 520 nm was measured as a function of time using an excitation wavelength of 495 nm in a Shimadzu RF5301 fluorimeter. The fluorescein release assay was used to determine the inhibitory constant (K_i) of the protein based matrix metalloproteinase inhibitor ([I]) according to Segel (1993) by using Dixon plots (1/v vs. [I]), where: […]

[4] = biological target: T1, matrix metalloproteinase-9 (MMP-9); assay: fluoresceinated collagen hydrolysis assay, Dixon plot, competitive inhibition assumed; target MMP-9
Protocol: as §1

T1 sequence (P14780 107-707 limits assumed): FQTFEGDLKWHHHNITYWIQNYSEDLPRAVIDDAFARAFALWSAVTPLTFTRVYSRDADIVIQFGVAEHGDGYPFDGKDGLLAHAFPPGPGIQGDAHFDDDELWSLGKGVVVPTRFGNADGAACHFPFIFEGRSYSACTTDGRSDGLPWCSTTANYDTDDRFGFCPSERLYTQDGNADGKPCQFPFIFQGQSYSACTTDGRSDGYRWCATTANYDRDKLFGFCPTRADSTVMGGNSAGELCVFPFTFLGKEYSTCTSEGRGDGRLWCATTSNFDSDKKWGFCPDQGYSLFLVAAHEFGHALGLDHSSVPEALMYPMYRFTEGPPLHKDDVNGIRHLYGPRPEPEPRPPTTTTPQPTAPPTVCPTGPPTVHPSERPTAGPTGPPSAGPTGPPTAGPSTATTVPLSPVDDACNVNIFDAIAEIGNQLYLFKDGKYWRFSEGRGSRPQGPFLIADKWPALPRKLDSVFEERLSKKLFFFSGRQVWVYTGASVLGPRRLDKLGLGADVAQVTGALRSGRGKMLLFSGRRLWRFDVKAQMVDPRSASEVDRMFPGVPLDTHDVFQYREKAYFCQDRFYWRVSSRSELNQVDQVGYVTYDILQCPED

B1: SEQ ID NO:5 polypeptide (DST; Delta Synthetic TIMP), purified Fraction IV protein (designed binder)
chain: CSCSPVHPQQAFSNADVVIRAKAVSEKEVDSGNDIYGNPIKRIQYEIKQIKMFKGPEKDIEFIYTAPSSAVCGVSLDVGGKKEYCIAGKAEGDGKMHITLCDFICPW
notes: It was expressed in E. coli as an MBP fusion and cleaved with Factor Xa; It is monomeric by gel filtration; Three disulfide bonds; also called DST protein
**Q.** Which results are given for B1?
**A.** Ka [1]: 1.5e+08 M⁻¹; koff [2]: 0.0013 s⁻¹; kon [2]: 200000 M⁻¹ s⁻¹; Ki [3]: 12 nM; Ki [4]: 16 nM
